We go through 21 molecules from patent publication US20150344570A1 (published 2015).

In the assay the target is T1, FcγRIa (human, UniProt P12314 16-292).
T1 construct: extracellular domain; also called FcgRI; 1a
Put plainly: SPR (Biacore); Ho Ab relative to HoCon Ab = 100. The protocol:
Analysis of interaction between objective antibody and the FcγR was carried out using Biacore T100 (GE Healthcare). HBS-EP+ (GE Healthcare) was used as the running buffer, and the measurement temperature was set to 25° C. Chips produced by immobilizing the antigen peptide by the amine coupling method to a Series S Sencor Chip CM5 (GE Healthcare), or alternatively, chips produced by allowing preliminarily biotinylated antigen peptides to interact with and immobilize onto a Series S Sensor Chip SA (certified) (GE Healthcare) were used. Antibodies of interest were captured onto an antigen peptide-immobilized chip, and allowed to interact to each FcγR diluted with running buffer. To regenerate and repeatedly use the chip, the antibodies captured on the chip were washed off by reacting 10 mM glycine-HCl, pH 1.5.

T1 sequence (P12314 16-292): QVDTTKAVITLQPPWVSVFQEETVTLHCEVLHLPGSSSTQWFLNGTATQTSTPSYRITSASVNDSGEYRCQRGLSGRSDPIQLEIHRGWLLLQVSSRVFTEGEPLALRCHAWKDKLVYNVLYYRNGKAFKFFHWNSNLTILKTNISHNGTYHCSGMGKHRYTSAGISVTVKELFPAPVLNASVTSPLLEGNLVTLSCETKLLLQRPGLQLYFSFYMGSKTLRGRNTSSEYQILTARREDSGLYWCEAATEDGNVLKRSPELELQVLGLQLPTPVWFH

B1: GpH7-B3 variant E269_13S/GpL16-k0 (antibody, human IgG1, kappa)
heavy: not shown
light: DIVMTQSPLSLPVTPGEPASISCQASESLVHSNRNTYLHWYLQKPGQSPQLLIYKVSNRFSGVPDRFSGSGSGTDFTLKISRVEAEDVGVYYCSQNTHVPPTFGQGTKVEIERTVAAPSVFIFPPSDEQLKSGTASVVCLLNNFYPREAKVQWKVDNALQSGNSQESVTEQDSKDSTYSLSSTLTLSKADYEKHKVYACEVTHQGLSSPVTKSFNRGEC
notes: also called Ho Ab E269_13S
B1: the Ho/Con_1a was 95.9 % of control.

B2: GpH7-B3 variant E333_01G/GpL16-k0 (antibody, human IgG1, kappa)
heavy: not shown
light: DIVMTQSPLSLPVTPGEPASISCQASESLVHSNRNTYLHWYLQKPGQSPQLLIYKVSNRFSGVPDRFSGSGSGTDFTLKISRVEAEDVGVYYCSQNTHVPPTFGQGTKVEIERTVAAPSVFIFPPSDEQLKSGTASVVCLLNNFYPREAKVQWKVDNALQSGNSQESVTEQDSKDSTYSLSSTLTLSKADYEKHKVYACEVTHQGLSSPVTKSFNRGEC
notes: also called Ho Ab E333_01G
On to B2, for which the Ho/Con_1a is 100 % of control.

B3: GpH7-B3 variant E333_15Y/GpL16-k0 (antibody, human IgG1, kappa)
heavy: not shown
light: DIVMTQSPLSLPVTPGEPASISCQASESLVHSNRNTYLHWYLQKPGQSPQLLIYKVSNRFSGVPDRFSGSGSGTDFTLKISRVEAEDVGVYYCSQNTHVPPTFGQGTKVEIERTVAAPSVFIFPPSDEQLKSGTASVVCLLNNFYPREAKVQWKVDNALQSGNSQESVTEQDSKDSTYSLSSTLTLSKADYEKHKVYACEVTHQGLSSPVTKSFNRGEC
notes: also called Ho Ab E333_15Y
Consider B3, for which the Ho/Con_1a was 100 % of control.

B4: GpH7-B3 variant E333_07I/GpL16-k0 (antibody, human IgG1, kappa)
heavy: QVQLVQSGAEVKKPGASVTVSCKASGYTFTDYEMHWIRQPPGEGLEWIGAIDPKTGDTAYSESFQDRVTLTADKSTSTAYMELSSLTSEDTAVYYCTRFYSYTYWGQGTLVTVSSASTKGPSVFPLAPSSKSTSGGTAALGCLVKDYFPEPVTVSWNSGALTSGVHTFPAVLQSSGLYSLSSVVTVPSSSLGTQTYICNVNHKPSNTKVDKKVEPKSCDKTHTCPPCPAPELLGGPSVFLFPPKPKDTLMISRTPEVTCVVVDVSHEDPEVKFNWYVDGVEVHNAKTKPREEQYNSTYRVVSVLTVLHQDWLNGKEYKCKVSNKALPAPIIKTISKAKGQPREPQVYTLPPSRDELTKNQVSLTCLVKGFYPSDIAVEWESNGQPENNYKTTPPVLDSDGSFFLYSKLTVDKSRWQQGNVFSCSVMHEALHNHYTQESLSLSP
light: DIVMTQSPLSLPVTPGEPASISCQASESLVHSNRNTYLHWYLQKPGQSPQLLIYKVSNRFSGVPDRFSGSGSGTDFTLKISRVEAEDVGVYYCSQNTHVPPTFGQGTKVEIERTVAAPSVFIFPPSDEQLKSGTASVVCLLNNFYPREAKVQWKVDNALQSGNSQESVTEQDSKDSTYSLSSTLTLSKADYEKHKVYACEVTHQGLSSPVTKSFNRGEC
notes: also called Ho Ab E333_07I
With B4, the Ho/Con_1a was 99.9 % of control.

B5: GpH7-B3 variant E333_04F/GpL16-k0 (antibody, human IgG1, kappa)
heavy: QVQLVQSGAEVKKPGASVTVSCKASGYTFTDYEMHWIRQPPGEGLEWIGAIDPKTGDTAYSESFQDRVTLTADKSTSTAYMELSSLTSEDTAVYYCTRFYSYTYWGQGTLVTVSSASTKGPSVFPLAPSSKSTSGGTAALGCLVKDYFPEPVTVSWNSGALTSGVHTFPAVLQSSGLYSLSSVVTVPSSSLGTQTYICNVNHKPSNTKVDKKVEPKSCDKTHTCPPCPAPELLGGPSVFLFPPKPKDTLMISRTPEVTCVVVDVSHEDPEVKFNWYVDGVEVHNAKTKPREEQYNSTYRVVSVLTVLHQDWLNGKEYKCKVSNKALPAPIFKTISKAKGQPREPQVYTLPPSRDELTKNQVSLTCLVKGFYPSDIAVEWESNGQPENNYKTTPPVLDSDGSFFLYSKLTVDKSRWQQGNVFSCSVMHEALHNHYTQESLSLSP
light: DIVMTQSPLSLPVTPGEPASISCQASESLVHSNRNTYLHWYLQKPGQSPQLLIYKVSNRFSGVPDRFSGSGSGTDFTLKISRVEAEDVGVYYCSQNTHVPPTFGQGTKVEIERTVAAPSVFIFPPSDEQLKSGTASVVCLLNNFYPREAKVQWKVDNALQSGNSQESVTEQDSKDSTYSLSSTLTLSKADYEKHKVYACEVTHQGLSSPVTKSFNRGEC
notes: also called Ho Ab E333_04F
As for B5, the Ho/Con_1a was 98.4 % of control.

B6: GpH7-B3 variant E333_02A/GpL16-k0 (antibody, human IgG1, kappa)
heavy: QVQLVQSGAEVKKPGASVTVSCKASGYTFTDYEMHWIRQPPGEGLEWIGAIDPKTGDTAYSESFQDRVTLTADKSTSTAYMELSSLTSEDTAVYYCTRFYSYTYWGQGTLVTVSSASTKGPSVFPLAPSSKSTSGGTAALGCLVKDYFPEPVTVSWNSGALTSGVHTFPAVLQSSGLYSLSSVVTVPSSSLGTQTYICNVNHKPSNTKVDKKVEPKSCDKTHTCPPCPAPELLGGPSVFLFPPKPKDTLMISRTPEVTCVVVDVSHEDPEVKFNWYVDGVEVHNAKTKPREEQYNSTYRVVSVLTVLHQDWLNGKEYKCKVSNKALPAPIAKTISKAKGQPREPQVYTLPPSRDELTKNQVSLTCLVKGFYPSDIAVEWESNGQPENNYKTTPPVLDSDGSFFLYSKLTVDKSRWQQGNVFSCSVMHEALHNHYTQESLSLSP
light: DIVMTQSPLSLPVTPGEPASISCQASESLVHSNRNTYLHWYLQKPGQSPQLLIYKVSNRFSGVPDRFSGSGSGTDFTLKISRVEAEDVGVYYCSQNTHVPPTFGQGTKVEIERTVAAPSVFIFPPSDEQLKSGTASVVCLLNNFYPREAKVQWKVDNALQSGNSQESVTEQDSKDSTYSLSSTLTLSKADYEKHKVYACEVTHQGLSSPVTKSFNRGEC
notes: also called Ho Ab E333_02A
For the molecule B6, the Ho/Con_1a was 96.2 % of control.

B7: GpH7-B3 variant E269_18N/GpL16-k0 (antibody, human IgG1, kappa)
heavy: not shown
light: DIVMTQSPLSLPVTPGEPASISCQASESLVHSNRNTYLHWYLQKPGQSPQLLIYKVSNRFSGVPDRFSGSGSGTDFTLKISRVEAEDVGVYYCSQNTHVPPTFGQGTKVEIERTVAAPSVFIFPPSDEQLKSGTASVVCLLNNFYPREAKVQWKVDNALQSGNSQESVTEQDSKDSTYSLSSTLTLSKADYEKHKVYACEVTHQGLSSPVTKSFNRGEC
notes: also called Ho Ab E269_18N
B7: the Ho/Con_1a is 92.7 % of control.

B8: GpH7-B3 variant E333_14T/GpL16-k0 (antibody, human IgG1, kappa)
heavy: not shown
light: DIVMTQSPLSLPVTPGEPASISCQASESLVHSNRNTYLHWYLQKPGQSPQLLIYKVSNRFSGVPDRFSGSGSGTDFTLKISRVEAEDVGVYYCSQNTHVPPTFGQGTKVEIERTVAAPSVFIFPPSDEQLKSGTASVVCLLNNFYPREAKVQWKVDNALQSGNSQESVTEQDSKDSTYSLSSTLTLSKADYEKHKVYACEVTHQGLSSPVTKSFNRGEC
notes: also called Ho Ab E333_14T
With B8, the Ho/Con_1a is 98.7 % of control.

B9: GpH7-B3 variant E269_15Y/GpL16-k0 (antibody, human IgG1, kappa)
heavy: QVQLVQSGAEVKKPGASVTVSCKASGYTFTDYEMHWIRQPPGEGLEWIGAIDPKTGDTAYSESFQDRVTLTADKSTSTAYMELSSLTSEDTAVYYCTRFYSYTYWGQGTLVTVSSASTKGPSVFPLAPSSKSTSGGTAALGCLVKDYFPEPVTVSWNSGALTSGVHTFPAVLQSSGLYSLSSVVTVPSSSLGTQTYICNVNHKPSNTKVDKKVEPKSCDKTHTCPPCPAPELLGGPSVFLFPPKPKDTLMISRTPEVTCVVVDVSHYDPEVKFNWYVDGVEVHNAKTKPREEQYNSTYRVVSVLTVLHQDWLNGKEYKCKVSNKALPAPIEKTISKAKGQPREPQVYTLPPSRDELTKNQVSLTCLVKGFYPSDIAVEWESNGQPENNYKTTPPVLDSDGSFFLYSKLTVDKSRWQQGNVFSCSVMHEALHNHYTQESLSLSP
light: DIVMTQSPLSLPVTPGEPASISCQASESLVHSNRNTYLHWYLQKPGQSPQLLIYKVSNRFSGVPDRFSGSGSGTDFTLKISRVEAEDVGVYYCSQNTHVPPTFGQGTKVEIERTVAAPSVFIFPPSDEQLKSGTASVVCLLNNFYPREAKVQWKVDNALQSGNSQESVTEQDSKDSTYSLSSTLTLSKADYEKHKVYACEVTHQGLSSPVTKSFNRGEC
notes: also called Ho Ab E269_15Y
B9: the Ho/Con_1a was 100 % of control.

B10: GpH7-B3 variant E333_12R/GpL16-k0 (antibody, human IgG1, kappa)
heavy: not shown
light: DIVMTQSPLSLPVTPGEPASISCQASESLVHSNRNTYLHWYLQKPGQSPQLLIYKVSNRFSGVPDRFSGSGSGTDFTLKISRVEAEDVGVYYCSQNTHVPPTFGQGTKVEIERTVAAPSVFIFPPSDEQLKSGTASVVCLLNNFYPREAKVQWKVDNALQSGNSQESVTEQDSKDSTYSLSSTLTLSKADYEKHKVYACEVTHQGLSSPVTKSFNRGEC
notes: also called Ho Ab E333_12R
For the molecule B10, the Ho/Con_1a was 94.2 % of control.

B11: GpH7-B3 variant E333_03V/GpL16-k0 (antibody, human IgG1, kappa)
heavy: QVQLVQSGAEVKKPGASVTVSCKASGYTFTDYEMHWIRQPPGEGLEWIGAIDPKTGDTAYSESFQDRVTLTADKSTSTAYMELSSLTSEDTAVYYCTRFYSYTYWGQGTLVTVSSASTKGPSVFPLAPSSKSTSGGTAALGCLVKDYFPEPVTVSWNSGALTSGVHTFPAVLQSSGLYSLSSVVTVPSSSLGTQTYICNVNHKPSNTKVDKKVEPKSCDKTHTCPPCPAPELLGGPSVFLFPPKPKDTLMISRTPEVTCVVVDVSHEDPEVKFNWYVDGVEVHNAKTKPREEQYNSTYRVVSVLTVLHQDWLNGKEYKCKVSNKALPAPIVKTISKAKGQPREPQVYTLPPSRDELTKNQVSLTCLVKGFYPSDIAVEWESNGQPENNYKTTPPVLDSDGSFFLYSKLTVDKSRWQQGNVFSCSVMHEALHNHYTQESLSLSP
light: DIVMTQSPLSLPVTPGEPASISCQASESLVHSNRNTYLHWYLQKPGQSPQLLIYKVSNRFSGVPDRFSGSGSGTDFTLKISRVEAEDVGVYYCSQNTHVPPTFGQGTKVEIERTVAAPSVFIFPPSDEQLKSGTASVVCLLNNFYPREAKVQWKVDNALQSGNSQESVTEQDSKDSTYSLSSTLTLSKADYEKHKVYACEVTHQGLSSPVTKSFNRGEC
notes: also called Ho Ab E333_03V
For the molecule B11, the Ho/Con_1a was 98.4 % of control.

B12: GpH7-B3 variant E269_14T/GpL16-k0 (antibody, human IgG1, kappa)
heavy: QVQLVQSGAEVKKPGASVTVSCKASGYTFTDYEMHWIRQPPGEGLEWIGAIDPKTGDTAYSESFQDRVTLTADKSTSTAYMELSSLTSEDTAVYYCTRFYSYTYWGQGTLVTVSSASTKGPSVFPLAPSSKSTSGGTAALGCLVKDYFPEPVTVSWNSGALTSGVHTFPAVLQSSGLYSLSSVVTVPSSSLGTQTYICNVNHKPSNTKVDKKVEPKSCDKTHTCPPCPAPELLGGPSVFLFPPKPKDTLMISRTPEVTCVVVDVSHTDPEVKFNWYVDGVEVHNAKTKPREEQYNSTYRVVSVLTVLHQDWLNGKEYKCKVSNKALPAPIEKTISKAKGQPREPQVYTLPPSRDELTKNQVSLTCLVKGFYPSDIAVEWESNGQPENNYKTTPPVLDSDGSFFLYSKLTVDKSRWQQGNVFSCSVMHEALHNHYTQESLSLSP
light: DIVMTQSPLSLPVTPGEPASISCQASESLVHSNRNTYLHWYLQKPGQSPQLLIYKVSNRFSGVPDRFSGSGSGTDFTLKISRVEAEDVGVYYCSQNTHVPPTFGQGTKVEIERTVAAPSVFIFPPSDEQLKSGTASVVCLLNNFYPREAKVQWKVDNALQSGNSQESVTEQDSKDSTYSLSSTLTLSKADYEKHKVYACEVTHQGLSSPVTKSFNRGEC
notes: also called Ho Ab E269_14T
Turning to B12, the Ho/Con_1a was 96.2 % of control.

B13: GpH7-B3 variant E333_05P/GpL16-k0 (antibody, human IgG1, kappa)
heavy: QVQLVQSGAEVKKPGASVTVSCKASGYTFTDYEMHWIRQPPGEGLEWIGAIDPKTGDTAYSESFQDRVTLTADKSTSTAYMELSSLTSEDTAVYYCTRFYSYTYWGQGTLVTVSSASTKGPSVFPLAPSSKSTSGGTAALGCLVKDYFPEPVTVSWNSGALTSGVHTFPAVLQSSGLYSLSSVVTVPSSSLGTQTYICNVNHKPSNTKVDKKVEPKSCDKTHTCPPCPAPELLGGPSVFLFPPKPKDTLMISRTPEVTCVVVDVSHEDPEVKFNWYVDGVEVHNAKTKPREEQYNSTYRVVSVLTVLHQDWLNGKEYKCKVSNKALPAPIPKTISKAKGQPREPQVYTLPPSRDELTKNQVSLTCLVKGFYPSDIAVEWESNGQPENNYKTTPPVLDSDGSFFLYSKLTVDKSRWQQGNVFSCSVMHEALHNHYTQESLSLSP
light: DIVMTQSPLSLPVTPGEPASISCQASESLVHSNRNTYLHWYLQKPGQSPQLLIYKVSNRFSGVPDRFSGSGSGTDFTLKISRVEAEDVGVYYCSQNTHVPPTFGQGTKVEIERTVAAPSVFIFPPSDEQLKSGTASVVCLLNNFYPREAKVQWKVDNALQSGNSQESVTEQDSKDSTYSLSSTLTLSKADYEKHKVYACEVTHQGLSSPVTKSFNRGEC
notes: also called Ho Ab E333_05P
On to B13, for which the Ho/Con_1a was 99.2 % of control.

B14: GpH7-B3 variant E269_20W/GpL16-k0 (antibody, human IgG1, kappa)
heavy: not shown
light: DIVMTQSPLSLPVTPGEPASISCQASESLVHSNRNTYLHWYLQKPGQSPQLLIYKVSNRFSGVPDRFSGSGSGTDFTLKISRVEAEDVGVYYCSQNTHVPPTFGQGTKVEIERTVAAPSVFIFPPSDEQLKSGTASVVCLLNNFYPREAKVQWKVDNALQSGNSQESVTEQDSKDSTYSLSSTLTLSKADYEKHKVYACEVTHQGLSSPVTKSFNRGEC
notes: also called Ho Ab E269_20W
In the case of B14, the Ho/Con_1a is 98.9 % of control.

B15: GpH7-B3 variant E333_06M/GpL16-k0 (antibody, human IgG1, kappa)
heavy: not shown
light: DIVMTQSPLSLPVTPGEPASISCQASESLVHSNRNTYLHWYLQKPGQSPQLLIYKVSNRFSGVPDRFSGSGSGTDFTLKISRVEAEDVGVYYCSQNTHVPPTFGQGTKVEIERTVAAPSVFIFPPSDEQLKSGTASVVCLLNNFYPREAKVQWKVDNALQSGNSQESVTEQDSKDSTYSLSSTLTLSKADYEKHKVYACEVTHQGLSSPVTKSFNRGEC
notes: also called Ho Ab E333_06M
In the case of B15, the Ho/Con_1a was 99.5 % of control.

B16: GpH7-B3 variant E333_08L/GpL16-k0 (antibody, human IgG1, kappa)
heavy: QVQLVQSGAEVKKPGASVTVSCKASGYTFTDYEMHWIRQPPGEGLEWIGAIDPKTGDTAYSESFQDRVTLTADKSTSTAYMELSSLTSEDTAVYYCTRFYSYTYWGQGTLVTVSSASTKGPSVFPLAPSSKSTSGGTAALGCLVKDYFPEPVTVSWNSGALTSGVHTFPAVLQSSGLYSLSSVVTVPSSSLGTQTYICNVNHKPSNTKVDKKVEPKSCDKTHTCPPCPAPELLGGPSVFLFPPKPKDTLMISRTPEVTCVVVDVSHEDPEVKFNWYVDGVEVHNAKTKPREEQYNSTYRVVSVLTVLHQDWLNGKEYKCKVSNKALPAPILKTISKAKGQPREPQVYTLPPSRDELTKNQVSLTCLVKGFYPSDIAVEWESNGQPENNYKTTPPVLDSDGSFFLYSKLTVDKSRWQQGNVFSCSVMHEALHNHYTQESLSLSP
light: DIVMTQSPLSLPVTPGEPASISCQASESLVHSNRNTYLHWYLQKPGQSPQLLIYKVSNRFSGVPDRFSGSGSGTDFTLKISRVEAEDVGVYYCSQNTHVPPTFGQGTKVEIERTVAAPSVFIFPPSDEQLKSGTASVVCLLNNFYPREAKVQWKVDNALQSGNSQESVTEQDSKDSTYSLSSTLTLSKADYEKHKVYACEVTHQGLSSPVTKSFNRGEC
notes: also called Ho Ab E333_08L
On to B16, for which the Ho/Con_1a is 99 % of control.

B17: GpH7-B3 variant E333_13S/GpL16-k0 (antibody, human IgG1, kappa)
heavy: not shown
light: DIVMTQSPLSLPVTPGEPASISCQASESLVHSNRNTYLHWYLQKPGQSPQLLIYKVSNRFSGVPDRFSGSGSGTDFTLKISRVEAEDVGVYYCSQNTHVPPTFGQGTKVEIERTVAAPSVFIFPPSDEQLKSGTASVVCLLNNFYPREAKVQWKVDNALQSGNSQESVTEQDSKDSTYSLSSTLTLSKADYEKHKVYACEVTHQGLSSPVTKSFNRGEC
notes: also called Ho Ab E333_13S
For the molecule B17, the Ho/Con_1a was 101 % of control.

B18: GpH7-B3 variant E333_11K/GpL16-k0 (antibody, human IgG1, kappa)
heavy: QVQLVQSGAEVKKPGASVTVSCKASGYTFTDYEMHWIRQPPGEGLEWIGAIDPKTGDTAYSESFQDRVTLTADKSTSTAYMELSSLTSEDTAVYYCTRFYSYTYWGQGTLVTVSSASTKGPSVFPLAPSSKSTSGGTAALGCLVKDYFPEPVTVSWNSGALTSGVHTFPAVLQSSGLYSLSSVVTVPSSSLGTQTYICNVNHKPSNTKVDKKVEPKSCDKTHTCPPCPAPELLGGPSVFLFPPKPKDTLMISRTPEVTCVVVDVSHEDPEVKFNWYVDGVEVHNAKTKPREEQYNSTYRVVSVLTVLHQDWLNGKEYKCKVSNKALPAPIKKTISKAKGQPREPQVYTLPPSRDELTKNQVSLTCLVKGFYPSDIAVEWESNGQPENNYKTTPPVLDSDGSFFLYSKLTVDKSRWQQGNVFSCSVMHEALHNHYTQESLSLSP
light: DIVMTQSPLSLPVTPGEPASISCQASESLVHSNRNTYLHWYLQKPGQSPQLLIYKVSNRFSGVPDRFSGSGSGTDFTLKISRVEAEDVGVYYCSQNTHVPPTFGQGTKVEIERTVAAPSVFIFPPSDEQLKSGTASVVCLLNNFYPREAKVQWKVDNALQSGNSQESVTEQDSKDSTYSLSSTLTLSKADYEKHKVYACEVTHQGLSSPVTKSFNRGEC
notes: also called Ho Ab E333_11K
Consider B18, for which the Ho/Con_1a is 95.8 % of control.

B19: GpH7-B3 variant E269_16H/GpL16-k0 (antibody, human IgG1, kappa)
heavy: not shown
light: DIVMTQSPLSLPVTPGEPASISCQASESLVHSNRNTYLHWYLQKPGQSPQLLIYKVSNRFSGVPDRFSGSGSGTDFTLKISRVEAEDVGVYYCSQNTHVPPTFGQGTKVEIERTVAAPSVFIFPPSDEQLKSGTASVVCLLNNFYPREAKVQWKVDNALQSGNSQESVTEQDSKDSTYSLSSTLTLSKADYEKHKVYACEVTHQGLSSPVTKSFNRGEC
notes: also called Ho Ab E269_16H
For B19, the Ho/Con_1a is 98.4 % of control.

B20: GpH7-B3 variant E269_19Q/GpL16-k0 (antibody, human IgG1, kappa)
heavy: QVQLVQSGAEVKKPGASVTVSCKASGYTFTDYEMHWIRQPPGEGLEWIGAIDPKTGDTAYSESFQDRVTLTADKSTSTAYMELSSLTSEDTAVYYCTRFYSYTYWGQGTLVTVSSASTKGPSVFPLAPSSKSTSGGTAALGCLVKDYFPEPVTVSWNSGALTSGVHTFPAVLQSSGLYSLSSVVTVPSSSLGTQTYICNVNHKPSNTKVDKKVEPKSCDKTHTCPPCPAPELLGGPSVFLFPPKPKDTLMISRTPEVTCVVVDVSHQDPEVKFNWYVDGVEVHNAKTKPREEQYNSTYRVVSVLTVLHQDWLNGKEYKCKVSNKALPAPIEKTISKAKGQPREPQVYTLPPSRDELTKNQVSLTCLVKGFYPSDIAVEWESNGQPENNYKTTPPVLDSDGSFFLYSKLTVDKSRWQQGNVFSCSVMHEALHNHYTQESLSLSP
light: DIVMTQSPLSLPVTPGEPASISCQASESLVHSNRNTYLHWYLQKPGQSPQLLIYKVSNRFSGVPDRFSGSGSGTDFTLKISRVEAEDVGVYYCSQNTHVPPTFGQGTKVEIERTVAAPSVFIFPPSDEQLKSGTASVVCLLNNFYPREAKVQWKVDNALQSGNSQESVTEQDSKDSTYSLSSTLTLSKADYEKHKVYACEVTHQGLSSPVTKSFNRGEC
notes: also called Ho Ab E269_19Q
Consider B20, for which the Ho/Con_1a was 99.6 % of control.

B21: GpH7-B3 variant E333_09D/GpL16-k0 (antibody, human IgG1, kappa)
heavy: not shown
light: DIVMTQSPLSLPVTPGEPASISCQASESLVHSNRNTYLHWYLQKPGQSPQLLIYKVSNRFSGVPDRFSGSGSGTDFTLKISRVEAEDVGVYYCSQNTHVPPTFGQGTKVEIERTVAAPSVFIFPPSDEQLKSGTASVVCLLNNFYPREAKVQWKVDNALQSGNSQESVTEQDSKDSTYSLSSTLTLSKADYEKHKVYACEVTHQGLSSPVTKSFNRGEC
notes: also called Ho Ab E333_09D
On to B21, for which the Ho/Con_1a was 103 % of control.
